In this assay the target is T1, recombinant E protein domain III of DENV-2, flag and hexahistidine tagged (dengue virus type 2).
T1 chain: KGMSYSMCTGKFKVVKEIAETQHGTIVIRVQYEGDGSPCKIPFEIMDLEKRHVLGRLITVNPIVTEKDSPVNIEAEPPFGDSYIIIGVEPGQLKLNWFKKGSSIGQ
Kind of assay: SPR. For orientation: SPR reads the build-up and loss of mass on a sensor chip optically.

B1: humanized DB32-6 monoclonal antibody (antibody, V domains shown)
VH: EVQLQQSGAELVKPGASVNLSCTASGFNIKDTYIHWVKQRPEQGLEWIGRIDPENGNAKYDPNFQAKATIAADTSSNTAYLQLSSLTSEDTAVYYCVRTGSFWYFDVWGQGTLVTVSS
VL: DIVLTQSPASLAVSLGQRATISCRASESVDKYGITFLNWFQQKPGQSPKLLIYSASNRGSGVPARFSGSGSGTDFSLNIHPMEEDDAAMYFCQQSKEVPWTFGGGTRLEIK
In the case of B1, the koff (commonly the first-order rate constant of dissociation) worked out at 1.7e-06 s⁻¹.

B2: murine DB32-6 monoclonal antibody (antibody)
chain 1: QVQLQQSGAELVKPGASVKLSCTASGFNIKDTYIHWVKQRPGQGLEWIGRIDPENGNAKYDPNFQAKATITADTSSNTAYLHLSSLTSEDTAVYYSVRTGSFWYFDVWGAGTTVTVSS
chain 2: not shown
With B2, the koff was 1.7e-06 s⁻¹.

The values above are taken from article PMC3341331 (2012).
